Measurements as given in PMC9977175.

Assays:
[1] = target: SUMO-tagged WIPI2b^Δ (residues 13 to 362 without 265 to 297) (human); assay: SEC-MALS
[2] = target: SUMO-tagged WIPI2b^Δ (residues 13 to 362 without 265 to 297) (human); assay: ITC

Sequence of Trx-tagged ATG16L1(78 to 247) (Q676U5 78-247): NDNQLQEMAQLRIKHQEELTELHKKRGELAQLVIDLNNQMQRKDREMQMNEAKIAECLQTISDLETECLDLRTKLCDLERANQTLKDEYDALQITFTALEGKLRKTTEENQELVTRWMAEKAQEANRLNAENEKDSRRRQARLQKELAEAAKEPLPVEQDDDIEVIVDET
Sequence of Trx-tagged ATG16L1(78 to 206) (Q676U5 78-206): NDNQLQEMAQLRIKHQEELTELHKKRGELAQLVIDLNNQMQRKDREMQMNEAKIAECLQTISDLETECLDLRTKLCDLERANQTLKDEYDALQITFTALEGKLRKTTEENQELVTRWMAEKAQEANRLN
Sequence of Trx-tagged ATG16L1(207 to 247) (Q676U5 207-247): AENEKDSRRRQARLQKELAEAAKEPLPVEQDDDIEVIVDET
Sequence of ATG16L1(124 to 247) (Q676U5 124-247): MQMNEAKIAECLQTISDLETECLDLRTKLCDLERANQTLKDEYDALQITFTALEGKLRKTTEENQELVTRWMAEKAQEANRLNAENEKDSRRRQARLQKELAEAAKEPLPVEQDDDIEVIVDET

ATG16L1(124 to 247) (from UniProt Q676U5 124-247) (domain or fragment)
stoichiometry N (ATG16L1 chains per WIPI2b^Δ (2:2)) [1]: 1

Trx-tagged ATG16L1(78 to 206) (from UniProt Q676U5 78-206) (domain or fragment)
Kd [2]: 6.88 µM

Trx-tagged ATG16L1(78 to 247) (from UniProt Q676U5 78-247) (domain or fragment)
KD of the WBS1 site (two-site fit) [2]: 2.88 µM | KD of the WBS2 site (two-site fit) [2]: 0.41 µM

Trx-tagged ATG16L1(207 to 247) (from UniProt Q676U5 207-247) (domain or fragment)
Kd [2]: 3.93 µM
